The values that follow are results of earlier work, collected in article PMC3350600.

The data set addresses PP1 (Homo sapiens) (UniProt P62136).
Chain of UniProt P62136 (P62136 2-330): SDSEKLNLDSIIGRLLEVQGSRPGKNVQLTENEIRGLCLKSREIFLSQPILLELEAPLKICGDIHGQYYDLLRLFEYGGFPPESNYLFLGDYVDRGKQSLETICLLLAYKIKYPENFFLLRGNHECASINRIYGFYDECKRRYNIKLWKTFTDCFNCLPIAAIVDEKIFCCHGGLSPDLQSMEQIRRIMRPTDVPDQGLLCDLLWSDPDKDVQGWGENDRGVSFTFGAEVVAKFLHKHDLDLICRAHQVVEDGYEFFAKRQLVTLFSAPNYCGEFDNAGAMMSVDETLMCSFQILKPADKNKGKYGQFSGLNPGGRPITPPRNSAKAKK

By Kd is commonly meant the free concentration of one partner at which half of the binding sites on the other are occupied at equilibrium, for simple one-to-one binding. For “Spinophilin PP1-binding domain (from UniProt O35274)”, the Kd is 8 nM.
